We go through 1 protein from FireProtDB (doi:10.1074/jbc.272.30.18686).

For the data set the following is noted: Escherichia coli (strain K12); pH 3.2; Thermal; CD; glycine-HCl 10 mM; reversible: yes; whole UniProt chain shown.

B1: Ribonuclease HI wild type, P0A7Y4 (protein)
chain: MLKQVEIFTDGSCLGNPGPGGYGAILRYRGREKTFSAGYTRTTNNRMELMAAIVALEALKEHCEVILSTDSQYVRQGITQWIHNWKKRGWKTADKKPVKNVDLWQRLDAALGQHQIKWEWVKGHAGHPENERCDELARAAAMNPTLEDTGYQVEV
On to B1, for which the Tm came out at 53 °C and the “unfolding enthalpy (van 't Hoff)” value worked out at 99.2 kcal/mol.

Usually Tm stands for the temperature at the midpoint of the melting transition.
